Data published in patent US20150299328A1 (ARMAGEN TECHNOLOGIES, published 2015).

B1: chimeric HIR Ab (human-mouse chimeric antibody to the human insulin receptor) (antibody, human IgG1, kappa)
heavy: not shown
light: DIQMTQSPSSLSASLGERVSLTCRASQDIGGNLYWLQQGPDGTIKRLIYATSSLDSGVPKRFSGSRSGSDYSLTISSLESEDFVDYYCLQYSSSPWTFGGGTKMEIKRTVAAPSVFIFPPSDEQLKSGTASVVCLLNNFYPREAKVQWKVDNALQSGNSQESVTEQDSKDSTYSLSSTLTLSKADYEKHKVYACEVTHQGLSSPVTKSFNRGEC
notes: Human IgG1 heavy chain constant region and human kappa light chain constant region; also called chimeric HIRMAb; HIRMAb
B2: HIR Ab-IDUA fusion protein (COS cell derived; HIR Ab-HC-IDUA fusion/HIR Ab-LC antibody) (antibody, human IgG1, kappa)
heavy: not shown
light: B1 light
notes: Bivalent antibody-enzyme fusion; It was made by dual transfection of COS cells with pHIR Ab-LC and pCD-HC-IDUA; also called HIR Ab-IDUA fusion antibody

Tests used:
[1] = molecular target: T1, HIR extracellular domain (ECD) (human, UniProt P06213 28-956, limits assumed); assay: ELISA, HIR ECD plated
T1 construct: extracellular domain; also called HIR ECD; IR ECD
Experimental: The extracellular domain (ECD) of the HIR was purified by lectin affinity chromatography from serum free medium conditioned by CHO cells that were permanently transfected with the HIR ECD. The HIR ECD was plated in ELISA wells to bind the chimeric HIRMAb without IDUA fused, and the CHO-derived HIRMAb-IDUA fusion protein. […] The binding constants shown in FIG. 18 were determined by non-linear regression analysis of the binding isotherms.

[2] = molecular target: T1, HIR extracellular domain (ECD); assay: ELISA, HIR ECD plated, biotinylated goat anti-human IgG detection
Experimental: The affinity of the fusion protein for the HIR extracellular domain (ECD) was determined with an ELISA. CHO cells permanently transfected with the HIR ECD were grown in serum free media (SFM), and the HIR ECD was purified with a wheat germ agglutinin affinity column, as previously described in Coloma et al. (2000) Pharm Res, 17:266-274. The HIR ECD was plated on Nunc-Maxisorb 96 well dishes and the binding of the HIR Ab, or the HIR Ab-IDUA fusion protein, to the HIR ECD was detected with a biotinylated goat anti-human IgG (H+L) secondary antibody, followed by avidin and biotinylated peroxidase (Vector Labs, Burlingame, Calif.). The concentration of either HIR Ab or HIR Ab-IDUA fusion protein that gave 50% maximal binding was determined with a non-linear regression analysis.

Row | Binder | EC50 [1] [nM] | EC50 [2] [nM]
1 | B1 | 0.75 | 0.61
2 | B2 | – | 0.93
